{
  "source": "paper PMC4266533",
  "about": "“Kinetics of the early events of GPCR signalling” (Febs Letters, 2014)",
  "binders": {"B1": {"name": "His6-Gαs (alpha subunit of the stimulatory G protein Gs) (natural protein, UniProt P63092 1-394, looked up)", "chain": "MGCLGNSKTEDQRNEEKAQREANKKIEKQLQKDKQVYRATHRLLLLGAGESGKSTIVKQMRILHVNGFNGEGGEEDPQAARSNSDGEKATKVQDIKNNLKEAIETIVAAMSNLVPPVELANPENQFRVDYILSVMNVPDFDFPPEFYEHAKALWEDEGVRACYERSNEYQLIDCAQYFLDKIDVIKQADYVPSDQDLLRCRVLTSGIFETKFQVDKVNFHMFDVGGQRDERRKWIQCFNDVTAIIFVVASSSYNMVIREDNQTNRLQEALNLFKSIWNNRWLRTISVILFLNKQDLLAEKVLAGKSKIEDYFPEFARYTTPEDATPEPGEDPRVTRAKYFIRDEFLRISTASGDGRHYCYPHFTCAVDTENIRRVFNDCRDIIQRMHLRQYELL", "notes": "Alpha subunit of Gs; construct donated by Renaud Wagner (University of Strasbourg); Also tested with GTPγS (same protein, assay a2); also called His6-Gs; His-Gαs"}},
  "key": {"[1]": {"target": "T1, FLAG-NTS1 (neurotensin receptor type 1) reconstituted into PC:PG nanodiscs, neurotensin-bound (UniProt P20789 1-424)", "T1 construct": "Neurotensin (NT), 13 amino acid peptide, agonist kept in excess (5 uM) with the receptor; The receptor stood in ~10 nm lipid nanodiscs with the belt protein MSP1D1 (Addgene plasmid 20061, made in E. coli BL21(DE3)); MSP1D1 is not written as a chain; Primarily one receptor per disc (50:1 MSP1D1:FLAG-NTS1); also called FLAG-NTS1-PC:PG nanodiscs; NTS1-nanodiscs", "T1 sequence (P20789 whole entry)": "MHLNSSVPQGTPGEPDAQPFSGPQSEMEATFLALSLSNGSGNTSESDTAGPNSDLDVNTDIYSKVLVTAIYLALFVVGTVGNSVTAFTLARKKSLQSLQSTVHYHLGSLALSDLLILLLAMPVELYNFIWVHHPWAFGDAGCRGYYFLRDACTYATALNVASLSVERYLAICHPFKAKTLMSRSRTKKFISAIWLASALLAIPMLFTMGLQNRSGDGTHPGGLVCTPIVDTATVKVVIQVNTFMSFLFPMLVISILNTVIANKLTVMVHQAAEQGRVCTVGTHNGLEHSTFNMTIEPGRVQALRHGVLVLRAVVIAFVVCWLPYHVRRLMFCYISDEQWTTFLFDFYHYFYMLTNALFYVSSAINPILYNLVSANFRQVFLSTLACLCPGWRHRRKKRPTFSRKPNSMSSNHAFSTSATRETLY", "assay": "SPR; FLAG-NTS1-PC:PG nanodiscs (2500 RU) captured on an L1 chip, empty PC:PG nanodiscs (2000 RU) in the reference cell; His6-Gs as analyte, 62.5-1000 nM, 150 s per concentration at 50 ul/min; 1:1 Langmuir and heterogeneous ligand binding fits", "conditions": "both partners purified"}, "[2]": {"target": "T1, FLAG-NTS1 (neurotensin receptor type 1) …", "assay": "SPR; Gα amine-coupled to a CM5 chip (Biacore T100/T200); NT-bound (5 uM NT) anti-FLAG-enriched FLAG-NTS1-PC:PG nanodiscs as analyte, serially diluted from 660 nM or 400 nM; single cycle kinetics at 30-50 ul/min; empty nanodiscs as reference, double-referenced; 50 mM Tris-HCl pH 7.4, 100 mM NaCl, 5 mM MgCl2; heterogeneous ligand binding global fit", "conditions": "both partners purified"}},
  "data": [
    {"binder": "B1", "values": [
      {"measurement": "Kd", "setting": "[1]", "result": 65, "unit": "nM"},
      {"measurement": "Kd", "setting": "[2]", "result": 9, "unit": "nM"}
    ]}
  ]
}
